This is an account of results in patent US12503443B2, “Process-scale synthesis of a plasma kallikrein inhibitor” (BioCryst Pharmaceuticals, Inc., priority 2019, dated 2025).

The target of one assay is human plasma kallikrein (Homo sapiens, UniProt P03952). In words: in vitro biochemical assay measuring inhibition of human plasma kallikrein activity. Particulars: protocols and results in WO 2015/134998 and US 2017/0073314 A1. As for the experimental part: Compound I was assayed in an in vitro biochemical assay measuring inhibition of human plasma kallikrein activity. Experimental protocols and results of the assays are found in WO 2015/134998 and U.S. Patent Application Publication No. 2017/0073314 A1 (both incorporated by reference).
Sequence of human plasma kallikrein (P03952 391-638 limits assumed): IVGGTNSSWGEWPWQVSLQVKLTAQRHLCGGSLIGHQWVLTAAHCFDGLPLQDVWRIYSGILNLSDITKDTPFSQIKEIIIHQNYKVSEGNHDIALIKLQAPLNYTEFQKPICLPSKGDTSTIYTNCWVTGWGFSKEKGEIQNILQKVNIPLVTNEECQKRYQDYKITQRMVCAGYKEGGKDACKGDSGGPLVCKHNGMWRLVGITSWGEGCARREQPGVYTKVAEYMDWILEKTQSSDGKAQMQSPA
Sequence of human plasma kallikrein (P03952 20-390 partner limits assumed): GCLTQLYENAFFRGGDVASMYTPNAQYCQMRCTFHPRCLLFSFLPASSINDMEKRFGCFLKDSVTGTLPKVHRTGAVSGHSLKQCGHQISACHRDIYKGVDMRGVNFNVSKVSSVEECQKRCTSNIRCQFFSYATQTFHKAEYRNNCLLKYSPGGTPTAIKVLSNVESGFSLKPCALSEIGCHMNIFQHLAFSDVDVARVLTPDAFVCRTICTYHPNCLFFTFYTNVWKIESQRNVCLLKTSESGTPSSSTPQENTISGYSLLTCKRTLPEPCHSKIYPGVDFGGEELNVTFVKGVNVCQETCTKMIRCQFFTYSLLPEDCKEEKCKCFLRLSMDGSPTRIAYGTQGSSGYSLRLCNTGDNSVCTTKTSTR

Assay [1] concerns patients with hereditary angioedema (HAE). Particulars: human, in vivo; cited from earlier work.
In a further assay the test system is rat models of arthritis. Conditions: cited from earlier work.
Another assay has as its system sepsis patients. Particulars: cited from earlier work.
Assay [2] deals with lipopolysaccharide (LPS)- or bacterial-induced sepsis in animals. Particulars: cited from earlier work.
The test system of assay [3] is mouse model of middle cerebral artery occlusion (MCAO). Particulars: cited from earlier work.

With `N#Cc1cccc([C@@H](NCC2CC2)c2ccc(F)c(NC(=O)c3cc(C(F)(F)F)nn3-c3cccc(CN)c3)c2)c1` [Compound I], at human plasma kallikrein, the “inhibition of human plasma kallikrein activity” value is listed as “potent inhibitor”.

Take `NC(N)=NCCC[C@@H](N)C(=O)N[C@@H](CCCN=C(N)N)C(=O)N1CCC[C@H]1C(=O)N1C[C@H](O)C[C@H]1C(=O)NCC(=O)N[C@@H](Cc1cccs1)C(=O)N[C@@H](CO)C(=O)N1Cc2ccccc2C[C@@H]1C(=O)N1[C@H](C(=O)N[C@@H](CCCN=C(N)N)C(=O)O)C[C@@H]2CCCC[C@@H]21` [Icatibant]: the “treating HAE” value in assay [1] was “effective”. As to `Cl.NCC1CCC(C(=O)N[C@@H](Cc2ccccc2)C(=O)Nc2ccc(CC(=O)O)cc2)CC1` (stereo partly shown) [PKSI-527], the joint swelling entry in the assay on rat models of arthritis is given as “reduce”.

B1: C1-inhibitor: physiological inhibitor of kallikrein in human plasma (protein, UniProt P05155 23-500, looked up)
Plasma protease C1 inhibitor: NPNATSSSSQDPESLQDRGEGKVATTVISKMLFVEPILEVSSLPTTNSTTNSATKITANTTDEPTTQPTTEPTTQPTIQPTQPTTQLPTDSPTQPTTGSFCPGPVTLCSDLESHSTEAVLGDALVDFSLKLYHAFSAMKKVETNMAFSPFSIASLLTQVLLGAGENTKTNLESILSYPKDFTCVHQALKGFTTKGVTSVSQIFHSPDLAIRDTFVNASRTLYSSSPRVLSNNSDANLELINTWVAKNTNNKISRLLDSLPSDTRLVLLNAIYLSAKWKTTFDPKKTRMEPFHFKNSVIKVPMMNSKKYPVAHFIDQTLKAKVGQLQLSHNLSLVILVPQNLKHRLEDMEQALSPSVFKAIMEKLEMSKFQPTLLTLPRIKVTTSQDMLSIMEKLEFFDFSYDLNLCGLTEDPDLQVSAMQHQTVLELTETGVEAAAASAISVARTLLVFEVQQPFLFVLWDQQHKFPVFMGRVYDPRA
For the molecule B1, in the assay with sepsis patients, the “clinical outcome in sepsis patients” value is on record as “Clinical improvement”. For the same molecule, in assay [2], the lesions result is listed as “reduce” and the “vascular permeability in multiple organs” value is “reduce”. In addition, the infarct size result in assay [3] is “reduced”.
